Measured values: patent US20080056998A1, “COMPOSITION AND PROCESSES FOR CROSSING THE BLOOD-BRAIN BARRIER WITH POLYPEPTIDES FOR IN VIVO NEUROIMAGING” (The General Hospital Corporation, priority 2006, published 2008)

Legend:
mouse brain [1] = experiment: in vivo NIR fluorescence imaging after intravenous injection; details: mice; for crossing of the BBB / accumulation in the brain: MPAP-Cy5.5 at about 24 hours post-injection, Cy5.5 at any point in time; for NIR fluorescent signal in the brain in vivo: imaging 15 min to 44 hours
Experimental: In the exemplary embodiment of the present invention, for in vivo optical imaging, n mice can be injected intravenously with about 2.5 nmol of the exemplary delivery module MPAP-Cy5.5, Cy5.5 alone, or saline solution. In an exemplary embodiment of the present invention, n=4 for each group of solutions for a total of 12 mice. Imaging can be performed at various times after injection. For example, it may be performed about 15 and 30 minutes after injection, as well as 1, 2, 3, 6, 24 and 44 hours after injection. For exemplary NIR fluorescent imaging, the mice can be placed into an imaging system, for example a Kodak Imaging Station IS2000MM, equipped with a band-pass filter at about 630 nm and a long pass filter at about 700 nm, such as the Chroma Technology Corporation. Exemplary images can be captured with e.g., charge-coupled device (“CCD”) camera embedded in the imaging system and exemplary analyses may be performed using Kodak ID3.6.3 imaging software.
Initially, after an exemplary intravenous injection of the delivery module into an mammal, such as a mouse, there may be no defined fluorescent signal in the brain for a few hours. […] An increase in the emitted light can occur 24 hours after injection 202, and the signal can continue to accumulate up to approximately 2 days or more 203.

mouse brain [2] = experiment: ex vivo NIR fluorescence imaging of removed brains and coronal brain slices; format: in vivo; details: for ex vivo NIR fluorescent signal of removed brain: 24 hours after injection
Experimental: In another exemplary embodiment of the present invention, fluorescence signals may be observed using exemplary ex vivo imaging performed on the exemplary mouse brains post injection of the exemplary delivery module. Exemplary Ex vivo NIR fluorescence imaging can be performed, e.g., 24 hours after the injection of the exemplary MPAP-Cy5.5 delivery module. Upon sacrificing the mice, each mouse brain can be removed, placed into the exemplary imaging system, and imaged as described above.
Additional observations regarding accumulation of the exemplary delivery module in the brain can be obtained after imaging 1 mm-thick coronal brain slices from the exemplary mouse brain. The exemplary mouse brain can be cut into 1 mm coronal brain sections using a slicing apparatus, such as the RBM-2000C provided by Analytical Scientific Instruments, taken at the following exemplary anteroposterior coordinates from bregma, e.g.: +1.1 mm, +0.1 mm, −0.9 mm, −1.9 mm. Referring to FIG. 6, the exemplary brain slices can then be placed into the exemplary imaging system and imaged 600 as described above.

[3] = HPLC study of perfused brain homogenate; format: in vivo, mouse; details: brain perfused 24 hours after intravenous injection
Experimental: In a further exemplary embodiment of the present invention, the mouse brains can be perfused for 24 hours after injection of the delivery module in order to remove intravascular contents. The brain homogenates can then be subjected to exemplary High-Powered Liquid Chromatography (“HPLC”) analysis.
According to an exemplary embodiment of the present invention, n mice (n=4 for example) can be injected intravenously with the delivery module. The mouse brain uptake of the compound can be detected by HPLC after in situ brain perfusion. A perfused brain can be soaked in a HPLC mobile phase solution for 15 minutes and homogenized on ice using a mechanical homogenizer, such as that which is marketed by Virtis in Gardiner, N.Y. A resulting brain residue can be filtered using, for example, 0.45 Am Whatman Nylon filters, lyophilized, and analyzed by 2D-HPLC, such as that whish is marketed by Lachrome Elite, Hitachi in San Jose, Calif. […] In addition, the detected peak can be correlated and matched with the absorbance spectrum profile of Cy5.5 dye. […] Furthermore, the absorbance profile of this peak can correspond to the absorbance profile of Cy5.5 dye at approximately 670 nm 702.
Upon switching the detection wavelength to 220 nm, the retention time peak at 32 min can be detected along with other more polar peaks, such as those associated with brain metabolites.

[4] = test system: neurons, astrocytes, and endothelial cells; experiment: dual-channel fluorescence microscopy of stained brain sections; format: in vivo, mouse
Source text: When the exemplary MPAP-Cy5.5 delivery module penetrates the BBB, exemplary dual-channel fluorescence microscopy can be used to observe whether the distribution of the exemplary MPAP-Cy5.5 delivery module in the exemplary brain forms in a cell-type-specific manner. In a further exemplary embodiment of the present invention, an exemplary distribution of the exemplary MPAP-Cy5.5 delivery module within different cell types of a brain can be determined with dual-channel fluorescence microscopy. For example, cryopreserved serial brain sections from mice perfused with the MPAP-Cy5.5 delivery module can be stained for neurons, astrocytes, and endothelial cells using anti-neuronal nuclei antibody (such as, for example, NeuN, monoclonal, from Chemicon International, Temecula, Calif.), anti-glial fibrillary acidic protein antibody (such as, for example, GFAP from Chemicon International, Temecula, Calif.), and anti-CD31 (such as, for example PECAM-1 from BD Biosciences Pharmingen, San Jose, Calif.). The brain sections may be further incubated with corresponding FITC-conjugated secondary antibodies. Further, slides of the brain sections can be mounted in a mounting medium, such as, for example, a Vectashield mounting medium from Vector Laboratories in Burlingame, Calif. Dual-channel fluorescence microscopy in, for example, the Cy5.5 and FITC channels can be performed using, for example, a Nikon Eclipse 50i fluorescence microscope equipped with an appropriate filter set, such as, for example, one provided by Chroma Technology Corporation in Rockingham, Vt. Exemplary images can be acquired using a CCD camera with near-infrared sensitivity (such as, for example, a SPOT 7.4 Slider RTKE from Diagnostic Instruments in Sterling Heights, Mich.).
Although a mechanism for neuronal accumulation remains unclear, it may be possible that preferential targeting into neurons can be related to the higher lypophilicity of neuronal membranes as compared to other cell types. (See, e.g., publications 4 and 6.) Lypophilic peptides may have an advantage to penetrate by adsorptive endocytosis. […] However, some signal may be detectable in the thalamus 904 and the CA3 area of the hippocampus 905.

brain endothelium = experiment: dual-channel confocal microscopy of brain endothelium; format: in vivo; details: intravenous, about 2.5 nmol; sacrificed 1, 3 or 6 hours after injection
Experimental: Further, fluorescence confocal microscopy techniques/systems can be employed to investigate a delivery route of the delivery module after injection. For example, mammals can be injected intravenously with about 2.5 nmol of the exemplary delivery module MPAPCy5.5, perfused, and sacrificed 1, 3 or 6 hours after injection. Brain sections from the sacrificed animals may be frozen. The frozen brain sections can then be stained with, for example, anti-CD31 antibodies followed by FITC-conjugated secondary antibody as described above. Dual-channel confocal microscopy can be performed, for example, in the FITC and Cy5.5 channels. Further, confocal microscopy can be performed using, for example, an Axiovert 200 M inverted microscope (from, e.g., Carl Zeiss, Inc. Thornwood, N.Y.), equipped with an LSM Pascal Vario RGB Laser Module (Arg 458/488/514 nm, HeNe 543 nm, HeNe 633 nm). An exemplary confocal images with a slice thickness of, for example, <0.9 Am can be acquired to produce, for example, FITC and Cy5.5 staining as well as Nomarski optics. Exemplary summation projection of all background-corrected confocal slices can be produced using, for example, LSM 5 Pascal Software. Further, the exemplary confocal images can be color-coded with, for example, green for FITC and red for Cy5.5. […]

Substance	crossing of the BBB / accumulation in the brain (mouse brain [1])	NIR fluorescent signal in the brain in vivo (mouse brain [1]; about 2.5 nmol)	ex vivo NIR fluorescent signal of removed brain (mouse brain [2])	time post-injection at which NIR fluorescent signal is detected in the brain (head summit) (mouse brain [1]; about 2.5 nmol) [h]	time up to which the brain signal continues to accumulate (mouse brain [1]; about 2.5 nmol) [days]	accumulation in peripheral tissues / mouse body (mouse brain [1]; kidneys and spleen)	distribution in 1 mm coronal brain slices (mouse brain [2]; slices at +1.1, +0.1, −0.9, −1.9 mm from bregma)	degradation in systemic circulation (intact compound in brain homogenate by HPLC) [3]	accumulation in astrocytes ([4]; GFAP staining)	accumulation in neurons ([4]; NeuN staining)	localization in endothelial cells ([4]; anti-CD31 staining)	distribution over brain regions ([4]; cortex, hippocampus, thalamus)	subcellular localization in neurons ([4]; mouse, in vivo)	time after injection to pass through the endothelium (brain endothelium) [h]
Cy5.5 [reference compound]	no accumulation in the brain	no signal appears	no significant signal beyond background levels	–	–	–	–	–	–	–	–	–	–	–
C14-βAla-(Arg)7-Cys(Cy5.5)-NH2 [MPAP-Cy5.5]	crossed the BBB and accumulate within the mouse brain	progressively increasing NIR fluorescent signal	strong NIR fluorescent signal	6	≥ 2	accumulation of the delivery module in peripheral tissues	distributed randomly throughout the brain parenchyma	may likely not degrade in systemic circulation	may not show widespread accumulation	primarily accumulate in neurons	no significant localization	detected in almost all regions of the brain	predominantly localized within the cell cytoplasm	≤ 1
